Sequences and labels used below:
B1: His6-tagged mouse 4EHP (natural protein, UniProt Q8BMB3 1-245, looked up)
chain: MNNKFDALKDDDSGDHDQNEENSTQKDGEKEKTDRDKSQSSGKRKAVVPGPAEHPLQYNYTFWYSRRTPGRPTSSQSYEQNIKQIGTFASVEQFWKFYSHMVRPGDLTGHSDFHLFKEGIKPMWEDDANKNGGKWIIRLRKGLASRCWENLILAMLGEQFMVGEEICGAVVSVRFQEDIISIWNKTASDQATTARIRDTLRRVLNLPPNTIMEYKTHTDSIKMPGRLGPQRLLFQNLWKPRLNVP
B2: GST-tagged mouse TTP (natural protein, UniProt P22893 1-319, looked up)
chain: MDLSAIYESLQSMSHDLSSDHGGTESLGGLWNINSDSIPSGVTSRLTGRSTSLVEGRSCGWVPPPPGFAPLAPRPGPELSPSPTSPTATPTTSSRYKTELCRTYSESGRCRYGAKCQFAHGLGELRQANRHPKYKTELCHKFYLQGRCPYGSRCHFIHNPTEDLALPGQPHVLRQSISFSGLPSGRRSSPPPPGFSGPSLSSCSFSPSSSPPPPGDLPLSPSAFSAAPGTPVTRRDPNQACCPSCRRSTTPSTIWGPLGGLARSPSAHSLGSDPDDYASSGSSLGGSDSPVFEAGVFGPPQTPAPPRRLPIFNRISVSE

Common to all, as to assay: pull-down
For experiment [1], the target named is T1, His6-tagged mouse GYF2 (mouse, UniProt Q6Y7W8 1-1291).
T1 sequence (looked up): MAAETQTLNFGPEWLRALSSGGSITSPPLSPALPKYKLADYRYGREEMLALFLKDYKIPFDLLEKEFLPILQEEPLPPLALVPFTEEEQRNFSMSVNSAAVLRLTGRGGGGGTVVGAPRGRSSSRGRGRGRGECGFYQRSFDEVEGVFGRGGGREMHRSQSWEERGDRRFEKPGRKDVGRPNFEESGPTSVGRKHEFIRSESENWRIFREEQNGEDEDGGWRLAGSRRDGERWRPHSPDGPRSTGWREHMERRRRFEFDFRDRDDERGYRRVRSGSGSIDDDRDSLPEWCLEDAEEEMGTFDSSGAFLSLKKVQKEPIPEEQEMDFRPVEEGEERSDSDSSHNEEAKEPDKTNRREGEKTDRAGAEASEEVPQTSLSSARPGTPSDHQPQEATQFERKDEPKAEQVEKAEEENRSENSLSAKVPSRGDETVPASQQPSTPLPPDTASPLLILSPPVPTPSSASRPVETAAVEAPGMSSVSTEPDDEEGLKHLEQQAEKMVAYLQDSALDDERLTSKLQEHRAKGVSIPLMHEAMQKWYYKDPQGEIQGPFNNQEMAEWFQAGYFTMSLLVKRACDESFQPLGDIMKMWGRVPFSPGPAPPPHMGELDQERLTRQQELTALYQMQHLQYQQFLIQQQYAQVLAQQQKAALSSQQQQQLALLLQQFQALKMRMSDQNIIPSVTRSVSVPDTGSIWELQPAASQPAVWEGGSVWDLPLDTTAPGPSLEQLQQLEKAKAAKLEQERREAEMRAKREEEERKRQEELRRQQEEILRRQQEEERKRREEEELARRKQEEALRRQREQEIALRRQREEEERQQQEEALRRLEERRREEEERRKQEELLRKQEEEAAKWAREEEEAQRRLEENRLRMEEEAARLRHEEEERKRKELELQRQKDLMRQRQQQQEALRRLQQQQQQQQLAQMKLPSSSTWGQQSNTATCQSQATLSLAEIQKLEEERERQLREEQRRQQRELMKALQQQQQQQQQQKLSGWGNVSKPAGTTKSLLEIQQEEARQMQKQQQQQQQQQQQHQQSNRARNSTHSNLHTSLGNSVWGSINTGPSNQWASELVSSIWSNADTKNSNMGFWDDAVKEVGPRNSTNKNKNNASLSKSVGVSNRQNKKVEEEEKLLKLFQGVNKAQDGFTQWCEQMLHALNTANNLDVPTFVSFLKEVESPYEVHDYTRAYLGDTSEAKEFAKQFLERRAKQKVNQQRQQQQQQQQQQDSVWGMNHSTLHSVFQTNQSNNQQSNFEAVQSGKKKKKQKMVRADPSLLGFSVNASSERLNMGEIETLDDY

The experiment “GST-tagged mouse TTP” addresses B2.
For experiment [2], the target named is T1, His6-tagged mouse GYF2. The source holds these as a separate data set.

Read-outs that look alike come from different tables or passages of the source.

B1: the binding result in the experiment with His6-tagged mouse GYF2 [1] and in the experiment with GST-tagged mouse TTP was “binds” each time.

With B2, the binding result in the experiment with His6-tagged mouse GYF2 [2] is reported as “binds”.

Source of the values: paper PMC4748815 (RNA, 2016).
